Measured values reported in US20110045003A1 (SYNOVEX, published 2011).
Changes are numbered by the printed parent chain. In names and notes the source's numbering stands.

T1: BSA coupled 37-mer Cad-11 peptide encompassing the Cad-11 immunogen (UniProt P55287 54-90, limits assumed, linked to BSA)
T1 construct: domain: 37-mer peptide encompassing the Cad-11 immunogen; also called Cad-11 antigen; Cad-11 peptide immunogen
T1 peptide (looked up): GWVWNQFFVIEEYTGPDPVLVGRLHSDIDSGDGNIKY

T2: recombinant Cad-11 EC1 human IgG1 fusion protein (R&D Systems Cat. No. 1790-CA-050) (human, UniProt P55287 54-617, limits assumed)
T2 construct: Bought protein; the catalogue product may hold more of the extracellular region; also called recombinant human Cad-11 EC1; recombinant human Cad-11 fusion protein; not shown: human IgG1 part of the bought fusion protein
T2 sequence: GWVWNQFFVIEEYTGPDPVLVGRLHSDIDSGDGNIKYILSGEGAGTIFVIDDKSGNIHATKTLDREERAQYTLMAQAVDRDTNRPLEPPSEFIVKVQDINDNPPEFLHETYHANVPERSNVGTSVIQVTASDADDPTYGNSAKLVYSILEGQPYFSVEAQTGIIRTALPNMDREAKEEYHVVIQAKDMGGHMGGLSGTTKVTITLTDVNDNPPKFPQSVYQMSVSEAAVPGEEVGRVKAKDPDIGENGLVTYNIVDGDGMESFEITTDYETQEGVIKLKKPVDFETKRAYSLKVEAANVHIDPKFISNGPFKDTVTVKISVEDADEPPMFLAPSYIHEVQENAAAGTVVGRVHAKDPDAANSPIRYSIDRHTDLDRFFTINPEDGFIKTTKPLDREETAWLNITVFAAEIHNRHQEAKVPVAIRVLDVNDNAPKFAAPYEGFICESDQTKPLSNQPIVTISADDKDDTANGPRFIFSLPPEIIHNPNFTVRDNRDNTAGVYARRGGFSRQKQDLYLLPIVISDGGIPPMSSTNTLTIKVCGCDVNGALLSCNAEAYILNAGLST

B1: humanized anti-Cad-11 antibody SDP071 (Vκ2/VH2) (antibody, IgG4, V domains shown)
VH: EVQLVQSGAEVKKPGASVKISCKASGYSFTGYFMNWVKQAPGQGLEWIGRINPYTGDTFYNQKFKGRATLTVDKSTSTAYMELSSLRSEDTAVYYCGRLGSRYWYFDVWGQGTTVTVSS
VL: DVLMTQTPLSSPVTLGQPASISCRSSQSIIHSNGNTYLEWYLQKPGQSPQLLIYKVSNRFSGVPDRFSGSGSGTDFTLKISRVEAEDVGVYYCFQGSHVPWTFGQGTKLEIK
notes: humanized IgG4 (S241P), kappa
B2: humanized anti-Cad-11 antibody SDP031 (Vκ1/VH3) (antibody, IgG4, V domains shown)
VH: B1 VH with K38R
VL: B1 VL with S68T
notes: humanized IgG4 (S241P), kappa
B3: humanized anti-Cad-11 antibody SDP061 (Vκ2/VH1) (antibody, IgG4, V domains shown)
VH: B1 VH with A9P, V11L, P41H, T76S, S84V, R87S, T91S
VL: B1 VL
notes: humanized IgG4 (S241P), kappa
B4: humanized anti-Cad-11 antibody SDP081 (Vκ2/VH3) (antibody, IgG4, V domains shown)
VH: B1 VH with K38R
VL: B1 VL
notes: humanized IgG4 (S241P), kappa
B5: humanized anti-Cad-11 antibody SDP111 (Vκ3/VH1) (antibody, IgG4, V domains shown)
VH: B1 VH with A9P, V11L, P41H, T76S, S84V, R87S, T91S
VL: B1 VL with L3V
notes: humanized IgG4 (S241P), kappa
B6: humanized anti-Cad-11 antibody SDP121 (Vκ3/VH2) (antibody, IgG4, V domains shown)
VH: B1 VH
VL: B1 VL with L3V
notes: humanized IgG4 (S241P), kappa
B7: humanized anti-Cad-11 antibody SDP041 (Vκ1/VH4) (antibody, IgG4, V domains shown)
VH: B1 VH with I20V, K38R, L70I
VL: B1 VL with S68T
notes: humanized IgG4 (S241P), kappa
B8: humanized anti-Cad-11 antibody SDP141 (Vκ3/VH4) (antibody, IgG4, V domains shown)
VH: B1 VH with I20V, K38R, L70I
VL: B1 VL with L3V
notes: humanized IgG4 (S241P), kappa
B9: humanized anti-Cad-11 antibody SDP151 (Vκ3/VH5) (antibody, IgG4, V domains shown)
VH: B1 VH with I20V, K38R, A68V, L70I
VL: B1 VL with L3V
notes: humanized IgG4 (S241P), kappa
B10: humanized anti-Cad-11 antibody SDP091 (Vκ2/VH4) (antibody, IgG4, V domains shown)
VH: B1 VH with I20V, K38R, L70I
VL: B1 VL
notes: humanized IgG4 (S241P), kappa
B11: humanized anti-Cad-11 antibody SDP101 (Vκ2/VH5) (antibody, IgG4, V domains shown)
VH: B1 VH with I20V, K38R, A68V, L70I
VL: B1 VL
notes: humanized IgG4 (S241P), kappa
B12: humanized anti-Cad-11 antibody SDP011 (Vκ1/VH1) (antibody, IgG4, V domains shown)
VH: B1 VH with A9P, V11L, P41H, T76S, S84V, R87S, T91S
VL: B1 VL with S68T
notes: humanized IgG4 (S241P), kappa
B13: humanized anti-Cad-11 antibody SDP131 (Vκ3/VH3) (antibody, IgG4, V domains shown)
VH: B1 VH with K38R
VL: B1 VL with L3V
notes: humanized IgG4 (S241P), kappa
B14: humanized anti-Cad-11 antibody SDP021 (Vκ1/VH2) (antibody, IgG4, V domains shown)
VH: B1 VH
VL: B1 VL with S68T
notes: humanized IgG4 (S241P), kappa

biological target: human Cadherin-11 protein expressed on 431-D-11 cells (human) (UniProt P55287); assay: cell-based or functional assay

| in vitro cell aggregation assay [µg/mL] | Molecule |
| --- | --- |
| 3 | human Cad-11-EC1-hIgG2-Fc1 fusion protein (Fc fusion) |

Biological target: T1, BSA coupled 37-mer Cad-11 peptide …
Assay: ELISA on BSA coupled 37-mer cadherin peptides, coat 500 ng/ml
Procedure: (§1) A dilution series from 5 μg/ml to 8 ng/ml in a volume of 100 μl/well of each the humanized anti-Cad-11 antibodies were incubated in the peptide coated wells and incubated at 22° C. for 1 hr. Antibody solution was removed from the wells and the plate washed twice with 200 μl/well of 0.05% Tween-PBS at 22° C. and blotted dry. The goat-anti mouse IgG (Pierce # 31432) was added to each well to plate at a 1:1000 dilution, 100 μl/well and incubate at 22° C. for 30 min. The secondary antibody solution was removed and the plate washed twice with 200 μl/well of 0.05% Tween-PBS at 22° C. and blotted dry. The reaction was developed by adding 100 μl/well tetramethylbenzidine (TMB) reagent IgG (Pierce # 34022, 1 step Turbo TMB-ELISA) to plate and developed at 22° C. for 5 min.
The greatest cross reactivity was seen against Cad-8. […] This assay was repeated with the Cad-11, Cad-8 and Cad-18 antigens with a lower antigen coat concentration of 50 ng/ml and a wider dilution series of the SDP051 antibody (FIG. 41B). […] An EC50 for Cad-18 could not be established due to the low level of binding observed.

| fold greater binding to the Cad-11 antigen than to the related antigens from the other cadherins [fold] | Molecule |
| --- | --- |
| > 20 | B1 |
| > 20 | B2 |
| > 20 | B3 |

Biological target: T1, BSA coupled 37-mer Cad-11 peptide …
Assay: ELISA, BSA-coupled 37-mer cadherin peptide coated at 500 ng/ml, antibody titrated, A450
Procedure: as §1, with “Reactibind plates (ThermoScientific) were coated with 500 ng/ml of the BSA coupled cadherin 37-mer peptide (NE peptide) corresponding to Cadherins-7, -8, -9, -11, -18, -20, and -24 in 0.05% Tween (EMD, product code 9480) in PBS (pH 7.2) (Gibco(Invitrogen), #20012) at 100 μl volume/well for overnight at 4° C. The peptide containing solution was removed from the well and the plate blocked with a 2% bovine serum albumin (BSA) in PBS, 200 μl volume/well, for 2 h at 22° C. The plate was then washed twice with 200 μl/well of PBS-Tween 0.05% at 22° C. and blotted dry. A dilution” for “A dilution”

| EC50 (read off the curve) [µg/mL] | Molecule |
| --- | --- |
| ~0.08 | B4 |
| ~0.07 | B1 |
| ~0.07 | B5 |
| ~0.06 | B6 |
| ~0.06 | B7 |
| ~0.06 | B2 |
| ~0.06 | B8 |
| ~0.06 | B9 |
| ~0.07 | B10 |
| ~0.07 | B11 |
| ~0.07 | B12 |
| ~0.07 | B13 |
| ~0.06 | B14 |
| ~0.06 | B3 |

biological target: T2, recombinant Cad-11 EC1 human IgG1 …; assay: competition ELISA on coated recombinant human Cad-11 EC1 fusion; competitor biotinylated SYN0012/H1M1 at 0.1 µg/ml
Procedure: (§2) The binding of the purified humanized composite variant antibodies (SDP011 to SDP151) to a recombinant Cad-11 EC1 human IgG1 fusion protein was assessed in a competition binding ELISA. A dilution series from 5 μg/ml to 0.0022 μg/ml of the humanized or control (SYN0012/H1M1) antibodies was premixed with a constant concentration of biotinylated murine anti-Cad-11 antibody, SYN0012/H1M1 (0.1 μg/ml, final concentration), before incubating for 1 hour at room temperature on a Nunc Immuno MaxiSorp 96 well flat bottom microtitre plate (Fisher Cat. No. DIS-971-030J) pre-coated with 0.25 μg/ml recombinant human Cad-11 EC1 (R&D Systems Cat. No. 1790-CA-050) diluted in PBS. The binding of the biotinylated mAb was detected with streptavidin-HRP (Sigma Cat. No. 55512) and tetramethylbenzidine (TMB) substrate (Invitrogen Cat. No. 00-2023).
The relative IC50 was calculated by dividing the value for the test antibody by that of SYN0012. Antibody expression levels given are for static cultures in T flasks. PI are calculated.

| relative IC50 (IC50 of the test antibody divided by that of SYN0012) | Molecule |
| --- | --- |
| 0.42 ratio (column head prints µg/mL) | B4 |
| 0.33 ratio (column head prints µg/mL) | B1 |
| 0.68 ratio (column head prints µg/mL) | B5 |
| 0.52 ratio (column head prints µg/mL) | B6 |
| 0.65 ratio (column head prints µg/mL) | B7 |
| 0.84 ratio (column head prints µg/mL) | B2 |
| 0.61 ratio (column head prints µg/mL) | B8 |
| 0.72 ratio (column head prints µg/mL) | B9 |
| 0.57 ratio (column head prints µg/mL) | B10 |
| 0.53 ratio (column head prints µg/mL) | B11 |
| 0.91 ratio (column head prints µg/mL) | B12 |
| 0.55 ratio (column head prints µg/mL) | B13 |
| 0.67 ratio (column head prints µg/mL) | B14 |
| 0.47 ratio (column head prints µg/mL) | B3 |

biological target: T2, recombinant Cad-11 EC1 human IgG1 …; assay: competition ELISA on coated recombinant human Cad-11 EC1 fusion protein; competitor biotinylated SYN0012 at 0.1 µg/ml, streptavidin-HRP, OD450
Procedure: as §2

| IC50 (read off the curve) [µg/mL] | Molecule |
| --- | --- |
| ~0.1 | B7 |
| ~0.2 | B2 |
| ~0.2 | B12 |
| ~0.1 | B14 |

biological target: T2, recombinant Cad-11 EC1 human IgG1 …; assay: competition ELISA: antibody dilution series premixed with biotinylated SYN0012/H1M1 (0.1 µg/ml) on plate-coated recombinant human Cad-11 EC1 fusion protein; OD450 = bound biotinylated SYN0012
Procedure: as §2

| IC50 (read off the curve) [µg/mL] | Molecule |
| --- | --- |
| ~0.2 | B5 |
| ~0.2 | B6 |
| ~0.2 | B8 |
| ~0.2 | B9 |
| ~0.2 | B13 |
